Results from patent US6335019B1, “Methods for treating sensitivity to protein allergen using peptides which include a T cell epitope recognized by a T cell receptor specific for the protein allergen” (Immulogic Pharmaceutical Corp., priority 1989, dated 2002).

Assays:
[1] = tested on: T cells from patients allergic to ragweed; assay: T cell proliferation of ragweed allergic patient T cells to ragweed proteins and recombinant lysates (tritiated thymidine); type: cell-based, human
Text: T cells from patients allergic to ragweed, previously stimulated with a mixed ragweed pollen extract, can recognize and proliferate in response to pollen extract, ragweed skin test reagent (RWST), affinity purified Amb a I protein and crude bacterial lysates containing recombinant Amb a I gene products IA, IB and IC (Table 4). […] The use of crude bacterial lysates as antigens precludes a firm conclusion form the negative responses, since the relative levels of recombinant proteins in lysate have not been determined.
Peripheral blood mononuclear cells (PBMC) were purified from 60 ml of heparinized blood from ragweed-allergic patients. PBMC were subsequently treated as described below, although in individual cases, the length of time of cultivation with IL-2 and IL-4 and the specific ragweed proteins and peptides used for stimulation varied. As an example, ten ml of patient 222 PBMC at 10^6/ml were cultured at 37° C. for 7 days in the presence of 20 micrograms aqueous ragweed pollen extract/ml RPMI-1640 supplemented with 5% pooled human AB serum. Viable cells were purified by Ficoll-Hypaque centrifugation and cultured for three weeks at 5 units recombinant human IL-2/ml and 5 units recombinant human IL-4/ml. The resting T cells were then restimulated (secondary) with 20 micrograms aqueous ragweed pollen extract/ml at a density of 2×10^5 cells/ml in the presence of X-irradiated (3500 RADS) autologous PBMC (5×10^5/ml) for three days, purified by Ficoll-Hypaque centrifugation and grown in 5 units IL-2/ml and 5 units IL-4/ml for two weeks. For assay, 2×10^4 resting secondary T cells were restimulated (tertiary) in the presence of 5×10^4 X-irradiated (3500 RADS) autologous PBMC or 2×10^4 autologous Epstein-Barr virus-transformed B cells (20,000 RADS) with various concentrations of allergen or their fragments in a volume of 200 microliters in 96-well round bottom assay plates for 3 days. Each well then received 1 microCurie tritiated (methyl) thymidine for 16 hours. The counts incorporated were collected onto glass fiber filters and processed for liquid scintillation counting. […] Antigens used: IPC aqueous pollen extract (pollen), Hollister-Stier ragweed skin test extract (RWST), ALK cat epithelium skin test extract (CST), affinity 4B5/B7 antibody purified (dialyzed) Amb a I (B7), and chromatographically purified Amb a I and (Amb a I). Medium only control is shown as a line with no symbol. Alternatively, PBMC were sometimes carried only into a secondary assay (as outlined above for a tertiary assay) with 20 micrograms aqueous pollen extract 7 days, followed by culture in 5 units IL-2/ml and 5 units IL-4/ml for 2-3 weeks. […] Secondary and tertiary assays of a panel of ragweed allergic patients were performed using synthetic peptides derived from the sequences of various ragweed pollen proteins. […] Another four peptides (RAE15.6, RAE3.D, RAE28.1, RAE26.15) which are also derived from the sequence of the same three cDNA's could stimulate 35 to 58% of the patients' T cells. One peptide (RAE4) which is derived from the cDNA of IPC Clone 5 could also stimulate 25% of the patients' T cells. […] By this method it is possible to identify novel therapeutic and diagnostics entities for use in the treatment and the diagnosis of ragweed allergy.

[2] = tested on: human IgE (ragweed allergic patient sera); assay: SDS-PAGE Western blot (and ELISA) of ragweed allergic patient IgE binding to pollen, affinity purified and recombinant Amb a I / Amb a II; set-up: key to IgE binding, summarized Western blot data: −: no signal over background; +−: barely discernable over background; +: clearly positive; ++: strongly positive; +++: highly positive

B1: Amb a IB: E. coli expressed recombinant Amb a IB, used as crude bacterial lysate (protein)
chain: LYFTLALVTLLQPVRSAEDVEEFLPSANETRRSLKACEAHNIIDKCWRCKADWANNRQALADCAQGFAKGTYGGKHGDVYTVTSDKDDDVANPKEGTLRFAAAQNRPLWIIFKRNMVIHLNQELVVNSDKTIDGRGVKVNIVNAGLTLMNVKNIIIHNINIHDIKVCPGGMIKSNDGPPILRQQSDGDAINVAGSSQIWIDHCSLSKASDGLLDITLGSSHVTVSNCKFTQHQFVLLLGADDTHYQDKGMLATVAFNMFTDHVDQRMPRCRFGFFQVVNNNYDRWGTYAIGGSSAPTILSQGNRFFAPDDIIKKNVLARTGTGNAESMSWNWRTDRDLLENGAIFLPSGSDPVLTPEQKAGMIPAEPGEAVLRLTSSAGVLSCHQGAPC
T cell recognition and proliferation (in words) ([1]; T cells previously stimulated with mixed ragweed pollen extract, summary of Table 4): proliferate | Stimulatory response of human T cells (proliferation compared to medium control) ([1]; patient 151 2° (secondary assay)): + (2-4 fold) | Stimulatory response of human T cells (proliferation compared to medium control) ([1]; patient 274 2° (secondary assay)): + (2-4 fold) | Stimulatory response of human T cells (proliferation compared to medium control) ([1]; patient 295 2° (secondary assay)): + (2-4 fold) | Stimulatory response of human T cells (proliferation compared to medium control) ([1]; patient 296 2° (secondary assay)): +++ (>10 fold) | Stimulatory response of human T cells (proliferation compared to medium control) ([1]; patient 314 2° (secondary assay)): +++ (>10 fold) | Stimulatory response of human T cells (proliferation compared to medium control) ([1]; patient 316 2° (secondary assay)): ++ (4-10 fold) | Stimulatory response of human T cells (proliferation compared to medium control) ([1]; patient 319 2° (secondary assay)): (+) (2 fold) | Stimulatory response of human T cells (proliferation compared to medium control) ([1]; patient 320 2° (secondary assay)): + (2-4 fold) | Stimulatory response of human T cells (proliferation compared to medium control) ([1]; patient 321 2° (secondary assay)): ++ (4-10 fold) | IgE binding, summarized Western blot data ([2]; patient 151): − | IgE binding, summarized Western blot data ([2]; patient 222): +− | IgE binding, summarized Western blot data ([2]; patient 291): − | IgE binding, summarized Western blot data ([2]; patient 295): +
